Positions count from the first letter of the chain named.
What was measured:
[1] = biological target: wild-type rat mu opioid receptor (rat) (UniProt P33535); experiment: cell-based or functional assay
[2] = biological target: Asn150Ala mutant rat mu opioid receptor (rat) (UniProt P33535); experiment: cell-based or functional assay
[3] = test system: SMS-Luc reporter in HEK293 cells; experiment: SMS-Luc luciferase reporter assay of MC-4 receptors in HEK293 cells; assay type: cell-based
Description: (§1) Briefly, HEK293 cells were cotransfected, as described above, with an expression vector encoding either the wild-type MC-4 receptor or the Asp146Met mutant MC-4 receptor and the reporter construct, SMS-Luc. As a negative control, cells were transfected with SMS-Luc and pcDNA1. Basal and ligand (αMHS) induced activity of the negative control, the wild-type MC-4 receptor, and the Asp146Met mutant MC-4 receptor were measured using the luciferase assay described above. […] Other constitutively active MC-4 receptors may be generated by this or any other approach and introduced as transgenics into animals of the invention

cAMP production = experiment: basal level cAMP production of MC-4 receptor mutant; assay type: cell-based; conditions: FIG. 2
Excerpt: FIG. 2 is a graph showing the constitutive activity of a D146M MC-4 receptor mutant as assayed by measuring basal level cAMP production.
as §1

[4] = test system: SMS-Luc reporter in HEK293 cells; experiment: SMS-Luc luciferase reporter assay of CCK-BR receptors in HEK293 cells; assay type: cell-based; conditions: FIG. 3
Description: In addition to these studies, luciferase assays were performed to measure the constitutive activity of the Leu325Glu CCK-BR mutant. HEK293 cells were transfected (as described above) with SMS-Luc and an expression vector encoding any one of pcDNA1, wild-type CCK-BR, or Leu325Glu CCK-BR.

[5] = test system: phospholipase C-mediated production of inositol phosphate in COS-7 cells; conditions: absence of agonist; cited from earlier work
[6] = test system: SRE-Luc + Gq5i reporter in HEK293 cells; experiment: SRE-Luc/Gq5i luciferase reporter assay in transfected HEK293 cells; assay type: cell-based; conditions: for stimulation of basal level activity: Asn150Ala mutant versus wild-type receptor; for Ligand Induced Activity (Light Emission) / Basal Activity (Light Emission): HEK293 cells; for Ligand Induced Activity (Light Emission): ligand DAMGO; for Basal Activity (Light Emission): no ligand
Description: Constitutive activity of the Asn150Ala mutant rat mu opioid receptor was assessed using a luciferase assay. The rat mu opioid receptor is a Gαi coupled receptor. Therefore we chose to use the Gq5i reporter system, described in detail above (Broach and Thorner, supra), which switches the signaling pathway from Gαi to Gαq for reliable positive readout. HEK293 cells were transfected with the reporter construct SRE-Luc, an expression vector containing nucleic acid encoding Gq5i (Broach and Thorner, supra), and an expression vector containing nucleic acid encoding either the wild-type or the Asn150Ala mutant rat mu opioid receptor. Basal and ligand-stimulated luciferase activity was measured. The ligand used in this assay was [D-Ala^2-MePhe^4, Gly-ol^5]enkephalin] (DAMGO). As a negative control, HEK293 cells were transfected with pcDNA1 (empty vector DNA), SRE-Luc, and the expression vector containing nucleic acid encoding Gq5i (Broach and Thorner, supra).
The luciferase assay was carried out as follows. On day 1, HEK293 cells in a T75 flask were washed with 15 ml serum-free media (or PBS), trypsinized with 5 ml 0.05% trypsin-EDTA (Gibco #25300-062), incubated at 37° C. for 3 minutes at which time 6-7 ml complete HEK293 media (Gibco #12100-046) and 10% Fetal Bovine Serum (Intergen #1050-90) were added. Thereafter, cells were collected in 50 ml centrifuge tubes, pelleted at 800-900 rpm (RCF ˜275), and resuspend in 20 ml complete media. The cells were counted using a haemocytometer and diluted to 85,000 cells/ml in complete media. Using a repeat pipettor or cell plater, 100 μl of cells were added to each well of a Primaria 96-well plate (Falcon #353872). Cells were then incubated at 37° C., 5% CO2 until use at 48 hours.
On day 3, cells were transfected using LipofectAMINE™ according to the manufacturer's protocol (Gibco #18324-012, Rockville, Md.).
On day 4, cells were stimulated as follows. Ligands for the receptor, either DAMGO or a non-peptide ligand (e.g., naloxone or naltrexone), were diluted to a desired concentration in serum-free media containing 0.15 mM PMSF (or other protease inhibitor(s)). The transfection media was then completely removed from cells and 50-100 μl stimulation media (i.e., media containing candidate ligands or the corresponding ligand free solvent) was added to each well. The cells were incubated for the desired time (standard is overnight) at 37° C., 5% CO2, although the optimal stimulation time may vary depending on the particular receptor used. The optimal incubation time may be determined systematically by testing a range of incubation times and determining which one yields the highest level of stimulation. For concomitant assessment of two ligands (e.g., ligand induced inhibition of forskolin stimulated CRE activity) each stimulus is prepared at two times the desired final concentration and mixed in equal volumes prior to addition to cells.
On day 5, an assay for luciferase expression was carried out according to the manufacturer's instructions (Packard, Meridin, Conn.)

## [D-Ala^2-MePhe^4, Gly-ol^5]enkephalin (peptide)
[1]
  Ligand Induced Activity (Light Emission), SRE-Luc + Gq5i luciferase reporter in HEK293 cells (Light Emission): 87500
[2]
  Ligand Induced Activity (Light Emission), SRE-Luc + Gq5i luciferase reporter in HEK293 cells (Light Emission): 87000

## Asp146Met mutant MC-4 receptor: melanocortin-4 receptor with Asp at position 146 of the DRY motif replaced by Met
[3]
  basal level activity versus wild-type MC-4 receptor: higher basal level activity than its wild-type counterpart
cAMP production
  constitutive activity in cAMP assay: exhibited constitutive activity

B1: Leu325Glu CCK-BR mutant: human CCK-BR with point mutation Leu325Glu in the third intracellular loop; constitutively active (protein, UniProt P32239 1-447, looked up, variant L325E)
Gastrin/cholecystokinin type …: MELLKLNRSVQGTGPGPGASLCRPGAPLLNSSSVGNLSCEPPRIRGAGTRELELAIRITLYAVIFLMSVGGNMLIIVVLGLSRRLRTVTNAFLLSLAVSDLLLAVACMPFTLLPNLMGTFIFGTVICKAVSYLMGVSVSVSTLSLVAIALERYSAICRPLQARVWQTRSHAARVIVATWLLSGLLMVPYPVYTVVQPVGPRVLQCVHRWPSARVRQTWSVLLLLLLFFIPGVVMAVAYGLISRELYLGLRFDGDSDSDSQSRVRNQGGLPGAVHQNGRCRPETGAVGEDSDGCYVQLPRSRPALELTALTAPGPGSGSRPTQAKELAKKRVVRMLLVIVVLFFLCWLPVYSANTWRAFDGPGAHRALSGAPISFIHLLSYASACVNPLVYCFMHRRFRQACLETCARCCPRPPRARPRALPDEDPPTPSIASLSRLSYTTISTLGPG
[4]
  basal level activity compared to wild-type CCK-BR: increased basal level activity compared to the wild-type CCK-BR
[5]
  agonist-independent constitutive activity (inositol phosphate production): triggers constitutive production of inositol phosphates to levels exceeding wild-type CCK-BR

B2: Asn150Ala rat mu opioid receptor: rat mu opioid receptor with Asn150Ala point mutation at position 150 of SEQ ID NO: 1; constitutively active (protein, listed as Rattus norvegicus)
chain: MDSSTGPGNTSDCSDPLAQASCSPAPGSWLNLSHVDGNQSDPCGLNRTGLGGNDSLCPQTGSPSMVTAITIMALYSIVCVVGLFGNFLVMYVIVRYTKMKTATNIYIFNLALADALATSTLPFQSVNYLMGTWPFGTILCKIVISIDYYAMFTSIFTLCTMSVDRYIAVCHPVKALDFRTPRNAKIVNVCNWILSSAIGLPVMFMATTKYRQGSIDCTLTFSHPTWYWENLLKICVFIFAFIMPILIITVCYGLMILRLKSVRMLSGSKEKDRNLRRITRMVLVVVAVFIVCWTPIHIYVIIKALITIPETTFQTVSWHFCIALGYTNSCLNPVLYAFLDENFKRCFREFCIPTSSTIEQQNSTRVRQNTREHPSTANTVDRTNHQLENLEAETAPLP
[6]
  stimulation of basal level activity: *6.5-fold stimulation of basal level activity.
  Ligand Induced Activity (Light Emission): 86,996
  Basal Activity (Light Emission): *56,498
[6]; listed as Asn150Ala mutant mu opioid receptor
  stimulation of basal level activity: approximately 6.5 fold

B3: wild-type rat mu opioid receptor: wild-type rat mu opioid receptor (SEQ ID NO: 1), Gαi coupled receptor, comparator (protein, listed as Rattus norvegicus)
chain: B2 chain with A150N
[6]
  Ligand Induced Activity (Light Emission): 87,461
  Basal Activity (Light Emission): 8,436
